According to PMC8808184 (2021):
One block for each binder: values may come before it.

Assays:
[1] = target: T1, E1 domain of chicken APP (chicken, biotin (EZ-Link NHS-PEG4-Biotin, 1:1 molar ratio) where immobilised in BLI); experiment: BLI
T1 chain: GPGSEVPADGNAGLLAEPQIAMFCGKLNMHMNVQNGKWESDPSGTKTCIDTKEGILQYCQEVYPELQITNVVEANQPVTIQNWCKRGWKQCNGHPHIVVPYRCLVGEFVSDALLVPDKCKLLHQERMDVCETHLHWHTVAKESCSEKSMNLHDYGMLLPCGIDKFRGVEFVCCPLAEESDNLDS

[2] = target: T2, E1 domain of human APLP1 (human, UniProt P51693 50-212, biotin (EZ-Link NHS-PEG4-Biotin, 1:1 molar ratio) where immobilised in BLI); experiment: BLI
T2 chain: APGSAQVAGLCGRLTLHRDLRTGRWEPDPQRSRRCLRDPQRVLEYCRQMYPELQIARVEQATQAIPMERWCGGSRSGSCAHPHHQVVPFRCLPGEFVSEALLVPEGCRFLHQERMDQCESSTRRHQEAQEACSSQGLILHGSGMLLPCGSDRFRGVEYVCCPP

Kd [1]: 20.9 µM
B1: FN1–FN3 region of chicken CNTN4, T751A and V752A (domain or fragment)
chain: GSTGSPPGPPEDVTIDEITDTTAQLSWRPGADNHSPITMYVVQARTPFSVGWQAVSTVPEVIDGKTFTATVVGLNPWVEYEFRVVAANLIGIGEPSRPSENRRTEEALPEVTPANVSGGGGSKSELVITWETVPEELQNGGGFGYVVAFRPFGTISWMQAAVASPDASRYVFRNESLPPFSPYEVKVGVYNNKGEGSFSPVTVVYSAEEEPTRAPITVLARSLSATDIEISWAPPRENQHKGRIQGYEVRCWRHDEKEENARKIRTVGNQTSAKVTNLQGNALYHLAVKAYNTAGTGPSSAMVNVTTKK

Kd [2]: 9.1 µM
B2: FN1–FN3 region of CNTN3 titrated against human APLP1(E1) (domain or fragment)
chain: PPENVKVDEITDTTAQLSWKEGKDNHSPVISYSIQARTPFSVGWQTVTTVPEVIDGKTHTATVVELNPWVEYEFRVVASNKIGGGEPSLPSEKVRTEEAVPEVPPSEVNGGGGSRSELVITWDPVPEELQNGEGFGYVVAFRPLGVTTWIQTVVTSPDTPRYVFRNESIVPYSPYEVKVGVYNNKGEGPFSPVTTVFSAEEEPTVAPSQVSANSLSSSEIEVSWNTIPWKLSNGHLLGYEVRYWNGGGKEESSSKMKVAGNETSARLRGLKSNLAYYTAVRAYNSAGAGPFSATVNVTTKKT

Kd [2]: 10.9 µM
B3: FN1–FN3 region of CNTN5 titrated against human APLP1(E1) and human APLP2(E1) (domain or fragment)
chain: PPGIVIVEEITESTATLSWSPAADNHSPISSYNLQARSPFSLGWQTVKTVPEIITGDMESAMAVDLNPWVEYEFRVVATNPIGTGDPSTPSRMIRTNEAVPKTAPTNVSGRSGRRHELVIAWEPVSEEFQNGEGFGYIVAFRPNGTRGWKEKMVTSSEASKFIYRDESVPPLTPFEVKVGVYNNKGDGPFSQIVVICSAEGEPSAAPTDVKATSVSVSEILVAWKHIKESLGRPQGFEVGYWKDMEQEDTAETVKTRGNESFVILTGLEGNTLYHFTVRAYNGAGYGPPSSEVSATTKKS
